One may read the Ki as a measure of affinity in units of concentration, obtained from inhibition or displacement. Read a low Ki as a stronger hold on the target.

The record followed here is PMC4778124, “A continuous sirtuin activity assay without any coupling to enzymatic or chemical reactions” (Scientific Reports, 2016).

Primed or numbered codes have the meaning given here. *: point of attachment. thiosuccinyl = lysine reacted with methyl 3-[(methylthio)thiocarbonyl]propanoate, then 1 M NaOH (thioxo peptide), O=C(O)CCC(=S)*; thioacetyl = lysine reacted with ethyl dithioacetate (thioxo peptide), CC(=S)*; Bz′ = not defined here

The target of the assay is T1, human sirtuin 2 (human, UniProt Q8IXJ6 1-389).
T1 construct: sirtuin 2 (Sirt2), human; also called Sirt2
T1 sequence (looked up): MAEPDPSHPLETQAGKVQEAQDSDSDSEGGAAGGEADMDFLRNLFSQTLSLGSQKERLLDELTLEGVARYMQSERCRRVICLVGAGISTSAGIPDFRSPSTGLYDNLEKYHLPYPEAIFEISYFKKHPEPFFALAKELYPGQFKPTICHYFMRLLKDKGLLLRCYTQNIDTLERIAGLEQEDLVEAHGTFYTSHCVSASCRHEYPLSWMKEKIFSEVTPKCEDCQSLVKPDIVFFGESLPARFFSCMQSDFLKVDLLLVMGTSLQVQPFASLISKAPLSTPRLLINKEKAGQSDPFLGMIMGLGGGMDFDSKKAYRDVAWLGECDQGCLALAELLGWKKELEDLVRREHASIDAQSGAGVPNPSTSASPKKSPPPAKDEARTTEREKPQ
The assay is described as follows: enzyme inhibition kinetics (continuous fluorescence activity assay); 96-well MTP fluorescence reader; kcat and KM for substrate 3 recorded at varying inhibitor concentrations (0.01-600 μM); 500 μM NAD+; 20 mM TRIS/HCl pH 7.8, 150 mM NaCl, 5 mM MgCl2; 37 °C; Ki from competitive and non-competitive inhibition models. To be noted: both partners purified.

With {Bz′}-GVLK(thioacetyl)EYGV-NH2 (source: synthetic peptide) [thioxo peptide 10 based on the CPS1 peptide], the affinity, expressed as Ki, was 0.3 ± 0.1 µM. Under {Bz′}-GVLK(thiosuccinyl)EYGV-NH2 (source: synthetic peptide) [thioxo peptide 11 based on the CPS1 peptide] stands 50 ± 9.9 µM.
